Assay results: patent US10703784B2, “Antigens and epitopes derived from Mycobacterium tuberculosis” (priority 2011, dated 2020)

Test system: PBMCs from LTBI donors (IFN-γ production)
Assay type: cell-based, human
Details: ex vivo IFN-γ ELISPOT; for Resp. freq.: fraction of 28 LTBI donors responding to epitopes of the antigen; for Total SFC: total spot-forming cells, LTBI donors

| Molecule | Resp. freq. [%] | Total SFC [SFC] |
| --- | --- | --- |
| Rv1366: MTB protein, novel CD4 T cell antigen; Conserved hypotheticals (protein, listed as Mycobacterium tuberculosis) MVVALVGSAIVDLHSRPPWSNNAVRRLGVALRDGVDPPVDCPSYAEVMLWHADLAAEVQDRIEGRSWSASELLVTSRAKSQDTLLAKLRRRPYLQLNTIQDIAGVRIDADLLLGEQTRLAREIADHFGADQPAIHDLRDHPHAGYRAVHVWLRLPAGRVEIQIRTILQSLWANFYELLADAYGRGIRYDERPEQLAAGVVPAQLQELVGVMQDASADLAMHEAEWQHCAEIEYPGQRAMALGEASKNKATVLATTKFRLERAINEAESAGGGG | 11 | 308 |
| Rv0690c: MTB protein, novel CD4 T cell antigen; Conserved hypotheticals (protein, listed as Mycobacterium tuberculosis) MTGTEHLVHTLRSQGRVCTSSGSPMYRELLELVAADVESGGVFASILADQKGAPEGQAVPLRLLGGLHRMVLDGRAPVLRRWYPSTGGTWQAEAAWPDIVRTATDQPESLRAALDRPPQTNEVGRSAALIGGLLIACLQFDLPIRLFEIGSSAGLNLRPDRYRYRYLGGEWGLADSPVRIDNAWLGELPPTATVRIVERHGYDIAPIDVTSPDGELNALSYIWPDQTDRLERLRGAIAVARNIPADLHRQAAHAAVAGMTLTDDALTVLWHSITWQYLPADERAAIRAGIDALAAQADAHCPFVHLTLEPAHQRPGAQIKYLVRMRSWPGGHARVLGECHPHGPPVTWQ | 11 | 233 |
| Rv1317c: MTB protein, novel CD4 T cell antigen; Information pathways (protein, listed as Mycobacterium tuberculosis) MHDDFERCYRAIQSKDARFDGWFVVAVLTTGVYCRPSCPVRPPFARNVRFLPTAAAAQGEGFRACKRCRPDASPGSPEWNVRSDVVARAMRLIADGTVDRDGVSGLAAQLGYTIRQLERLLQAVVGAGPLALARAQRMQTARVLIETTNLPFGDVAFAAGFSSIRQFNDTVRLACDGTPTALRARAAARFESATASAGTVSLRLPVRAPFAFEGVFGHLAATAVPGCEEVRDGAYRRTLRLPWGNGIVSLTPAPDHVRCLLVLDDFRDLMTATARCRRLLDLDADPEAIVEALGADPDLRAVVGKAPGQRIPRTVDEAEFAVRAVLAQQVSTKAASTHAGRLVAAYGRPVHDRHGALTHTFPSIEQLAEIDPGHLAVPKARQRTINALVASLADKSLVLDAGCDWQRARGQLLALPGVGPWTAEVIAMRGLGDPDAFPASDLGLRLAAKKLGLPAQRRALTVHSARWRPWRSYATQHLWTTLEHPVNQWPPQEKIA | 11 | 97 |
| Rv0279c: MTB protein, novel CD4 T cell antigen; PE/PPE (protein, listed as Mycobacterium tuberculosis) MSFVIAAPEVIAAAATDLASLESSIAAANAAAAANTTALLAAGADEVSTAVAALFGAHGQAYQALSAQAQAFHAQFVQALTSGGGAYAAAEAAATSPLLAPINEFFLANTGRPLIGNGTNGAPGTGANGGDGGWLIGNGGAGGSGAAGVNGGAGGNGGAGGLIGNGGAGGAGGRASTGTGGAGGAGGAAGMLFGAAGVGGPGGFAAAFGATGGAGGAGGNGGLFADGGVGGAGGATDAGTGGAGGSGGNGGLFGAGGTGGPGGFGIFGGGAGGDGGSGGLFGAGGTGGSGGTSIINVGGNGGAGGDAGMLSLGAAGGAGGSGGSNPDGGGGAGGIGGDGGTLFGSGGAGGVCGLGFDAGGAGGAGGKAGLLIGAGGAGGAGGGSFAGAGGTGGAGGAPGLVGNAGNGGNGGASANGAGAAGGAGGSGVLIGNGGNGGSGGTGAPAGTAGAGGLGGQLLGRDGFNAPASTPLHTLQQQILNAINEPTQALTGRPLIGNGANGTPGTGADGGAGGWLFGNGGNGGHGATGADGGDGGSGGAGGILSGIGGTGGSGGIGTTGQGGTGGTGGAALLIGSGGTGGSGGFGLDTGGAGGRGGDAGLFLGAAGTGGQAALSQNFIGAGGTAGAGGTGGLFANGGAGGAGGFGANGGTGGNGLLFGAGGTGGAGTLGADGGAGGHGGLFGAGGTGGAGGSSGGTFGGNGGSGGNAGLLALGASGGAGGSGGSALNVGGTGGVGGNGGSGGSLFGFGGAGGTGGSSGIGSSGGTGGDGGTAGVFGNGGDGGAGGFGADTGGNSSSVPNAVLIGNGGNGGNGGKAGGTPGAGGTSGLIIGENGLNGL | 11 | 45 |
| Rv1172c: MTB protein, novel CD4 T cell antigen; PE/PPE (protein, listed as Mycobacterium tuberculosis) MSFVFAAPEALAAAAADMAGIGSTLNAANVVAAVPTTGVLAAAADEVSTQVAALLSAHAQGYQQLSRQMMTAFHDQFVQALRASADAYATAEASAAQTMVNAVNAPARALLGHPLISADASTGGGSNALSRVQSMFLGTGGSSALGGSAAANAAASGALQLQPTGGASGLSAVGALLPRAGAAAAAALPALAAESIGNAIKNLYNAVEPWVQYGFNLTAWAVGWLPYIGILAPQINFFYYLGEPIVQAVLFNAIDFVDGTVTFSQALTNIETATAASINQFINTEINWIRGFLPPLPPISPPGFPSLP | 11 | 237 |
| Rv0278c: MTB protein, novel CD4 T cell antigen; PE/PPE (protein, listed as Mycobacterium tuberculosis) MSFVIAAPEVIAAAATDLASLGSSISAANAAAAANTTALMAAGADEVSTAIAALFGAHGQAYQALSAQAQAFHAQFVQALTSGGGAYAAAEAAAVSPLLDPINEFFLANTGRPLIGNGANGAPGTGANGGDGGWLIGNGGAGGSGAAGVNGGAGGNGGAGGNGGAGGLIGNGGAGGAGGVASSGIGGSGGAGGNAMLFGAGGAGGAGGGVVALTGGAGGAGGAGGNAGLLFGAAGVGGAGGFTNGSALGGAGGAGGAGGLFATGGVGGSGGAGSSGGAGGAGGAGGLFGAGGTGGHGGFADSSFGGVGGAGGAGGLFGAGGEGGSGGHSLVAGGDGGAGGNAGMLALGAAGGAGGIGGDGGTLTAGGIGGAGGAGGNAGLLFGSGGSGGAGGFGFADGGQGGPGGNAGTVFGSGGAGGNGGVGQGFAGGIGGAGGTPGLIGNGGNGGNGGASAVTGGNGGIGGTGVLIGNGGNGGSGGIGAGKAGVGGVSGLLLGLDGFNAPASTSPLHTLQQNVLNVVNEPFQTLTGRPLIGNGANGTPGTGADGGAGGWLFGNGANGTPGTGAAGGAGGWLFGNGGNGGHGATNTAATATGGAGGAGGILFGTGGNGGTGGIATGAGGIGGAGGAGGVSLLIGSGGTGGNGGNSIGVAGIGGAGGRGGDAGLLFGAAGTGGHGAAGGVPAGVGGAGGNGGLFANGGAGGAGGFNAAGGNGGNGGLFGTGGTGGAGTNFGAGGNGGNGGLFGAGGTGGAAGSGGSGITTGGGGHGGNAGLLSLGASGGAGGSGGASSLAGGAGGTGGNGALLFGFRGAGGAGGHGGAALTSIQQGGAGGAGGNGGLLFGSAGAGGAGGSGANALGAGTGGTGGDGGHAGVFGNGGDGGCRRVWRRYRRQRWCRRQRRADRQRRQRRQRRQSRGHARCRRHRRAAARRERTQRLAIAGRPATTRGVEGISCSPQMMP | 11 | 45 |
| Rv0985c: MTB protein, novel CD4 T cell antigen; Cell wall and cell processes (protein, listed as Mycobacterium tuberculosis) MLKGFKEFLARGNIVDLAVAVVIGTAFTALVTKFTDSIITPLINRIGVNAQSDVGILRIGIGGGQTIDLNVLLSAAINFFLIAFAVYFLVVLPYNTLRKKGEVEQPGDTQVVLLTEIRDLLAQTNGDSPGRHGGRGTPSPTDGPRASTESQ | 11 | 70 |
| Rv0442c: MTB protein, novel CD4 T cell antigen; PE/PPE (protein, listed as Mycobacterium tuberculosis) MTSPHFAWLPPEINSALMFAGPGSGPLIAAATAWGELAEKLLASIASLGSVTSELTSGAWLGPSAAAMMAVATQYLAWLSTAAAQAEQAAAQAMAIATAFEAALAATVQPAVVAANRGLMQLLAATNWFGQNAPALMDVEAAYEQMWALDVAAMAGYHFDASAAVAQLAPWQQVLRNLGIDIGKNGQINLGFGNTGSGNIGNNNIGNNNIGSGNTGTGNIGSGNTGSGNLGLGNLGDGNIGFGNTGSGNIGFGITGDHQMGFGGFNSGSGNIGFGNSGTGNVGLFNSGSGNIGIGNSGSLNSGIGTSGTINAGLGSAGSLNTSFWNAGMQNAALGSAAGSEAALVSSAGYATGGMSTAALSSGILASALGSTGGLQHGLANVLNSGLTNTPVAAPASAPVGGLDSGNPNPGSGSAAAGSGANPGLRSPGTSYPSFVNSGSNDSGLRNTAVREPSTPGSGIPKSNFYPSPDRESAYASPRIGQPVGSE | 11 | 232 |
| Rv0987: MTB protein, novel CD4 T cell antigen; Cell wall and cell processes (protein, listed as Mycobacterium tuberculosis) MNDQAPVAYAPLWRTAWRRLRQRPFQYILLVLGIALGVAMIVAIDVSSNSAQRAFDLSAAAITGKSTHRLVSGPAGVDQQLYVDLRRHGYDFSAPVIEGYVLARGLGNRAMQFMGTDPFAESAFRSPLWSNQNIAELGGFLTRPNGVVLSRQVAQKYGLAVGDRIALQVKGAPTTVTLVGLLTPADEVSNQKLSDLIIADISTAQELFHMPGRLSHIDLIIKDEATATRIQQRLPAGVRMETSDTQRDTVKQMTDAFTVNLTALSLIALLVGIFLIYNTVTFNVVQRRPFFAILRCLGVTREQLFWLIMTESLVAGLIGTGLGLLIGIWLGEGLIGLVTQTINDFYFVINVRNVSVSAESLLKGLIIGIFAAMLATLPPAIEAMRTVPASTLRRSSLESKITKLMPWLWVAWFGLGSFGVLMLWLPGNNLVVAFVGLFSVLIALALIAPPLTRFVMLRLAPGLGRLLGPIGRMAPRNIVRSLSRTSIAIAALMMAVSLMVGVSISVGSFRQTLANWLEVTLKSDVYVSPPTLTSGRPSGNLPVDAVRNISKWPGVRDAVMARYSSVFAPDWGREVELMAVSGDISDGKRPYRWIDGNKDTLWPRFLAGKGVMLSEPMVSRQHLQMPPRPITLMTDSGPQTFPVLAVFSDYTSDQGVILMDRASYRAHWQDDDVTTMFLFLASGANSGALIDQLQAAFAGREDIVIQSTHSVREASMFIFDRSFTITIALQLVATVVAFIGVLSALMSLELDRAHELGVFRAIGMTTRQLWKLMFIETGLMGGMAGLMALPTGCILAWILVRIINVRSFGWTLQMHFESAHFLRALLVAVVAALAAGMYPAWRLGRMTIRTAIREE | 11 | 133 |
| Rv0298: MTB protein, novel CD4 T cell antigen; Conserved hypotheticals (protein, listed as Mycobacterium tuberculosis) MTKEKISVTVDAAVLAAIDADARAAGLNRSEMIEQALRNEHLRVALRDYTAKTVPALDIDAYAQRVYQANRAAGS | 11 | 783 |
